In PMC9270183 (The Journal of Experimental Medicine, 2022):
Numbering of substitutions follows the chain as printed.

B1: V056 (antibody, V domains shown)
VH: QVQLVESGGGVVQPGRSLRLSCAASGFPFSNYGMHWVRQAPGKGLEWVAVISYDGSNKYYADSVKGRFTISRDNSKNTLYLQMNSLRAEDTALYYCAKDSRPLPAAMSTYYYYGVDVWGQGTTVTVSS
VL: not shown
notes: IgG; donor BRA15; source: recombinant monoclonal IgG, produced and purified as previously described
B2: V057 (antibody, V domains shown)
VH: EVQLVESGGGLVQPGRSLRLSCAASGFTFGDYAMHWVRQAPGKGLEWVSGISWNSGIIGQADSVKGRFTISRDNAKNSLYLQMNSLRVEDTALYYCAKGGGESVEVPADEKLDYWGQGTLVTVSS
VL: QSVLTQPPSVSGAPGQRVTISCTGSSSNIGAGYDVHWYQQLPGTAPKLLIYGNNNRPSGVPDRFSGSKSGTSASLAITGLQAEDEADYYCQSYDSSLSGSWVFGGGTKLTVL
notes: as for B1
B3: V060 (antibody, V domains shown)
VH: B1 VH with Q39R, S56L, S85R, L93V, L103V, A105G, V115M
VL: not shown
notes: as for B1
B4: V061 (antibody, V domains shown)
VH: QVQLVQSGAEVKKPGTSVKVSCKASGYTFKNYGISWVRQAPGQGLEWMGWISAHNGNTNYAQRVQGRVTMTTDTSTSTAYMELRSLRSEDTAVYYCGRESGVASHPGDLDYWGQGTLVTVSS
VL: SYELTQPPSVSVSPGQTARITCSGDALPRQYAYWYQQKPGQAPVLLIYKDSERPSGIPERFSGSSSGTTVTLTISGVQAEDEADYYCQSADSSVVFGGGAKLTVL
notes: as for B1
B5: V062 (antibody, V domains shown)
VH: QLQLQESGPGLVKPSETLSLTCTVSSGSISSSSYYWGWIRQPPGKGLEWIGSIYYSGSTYYNPSLKSRVTISVDTSKNQFSLKLSSVTAADTAVYYCARHWRENFAHAFDIWGQGTMVTVSS
VL: QSALTQPASVSGSPGQSITISCTGTSSDVGSYDLVSWFQQHPGKAPKLMIYEVTKRPSGVSNRFSGSKSGNTASLTISGLQAEDEADYYCCSYVGSSTYWVFGGGTKLTVL
notes: as for B1
B6: V063 (antibody, V domains shown)
VH: QVQLVESGGGVVQPGRSLRLSCAASGFPFSSFGMHWVRQAPGKGLEWVAVISSDGSNKYYADSVKGRFTISRDNSKNTLYLQMNSLRAEDTAVYYCAKEFTYVVVTAFWGTENFDIWGQGTMVTVSS
VL: DIQMTQSPSTLSASVGDRVTITCRASQSISSWLAWYQQKPGKAPNLLIYKASALESGVPSRFSGSGSGTEFTLTISSLQPDDFATYYCQQYNSYPITFGQGTRLEIK
notes: as for B1
B7: V064 (antibody, V domains shown)
VH: EVQLVESGGGLVQPGGSLRLSCAASGLTVSRNYMRWVRQAPGKGLEWVSLIYSGGSTFYGDSVKGRFTISRDNSKNTLYLQMNSLRAEDTAVYYCARDLVRDGMDVWGQGTTVTVSS
VL: EIVMTQSPATLSVSPGERATLSCRASQSVSSNLAWYQQKPGQAPRLLIYGASTRATGIPARFSGSGSGTEFTLTISSLQSEDFAVYYCQQYNNWTFGQGTKVEIK
notes: as for B1
B8: V009 (antibody, V domains shown)
VH: EVQLVQSGAEVKKPGESLKISCKGSGYRFTSYWIGWVRQMPGKGLEWMGIIYAGDSDTRYSPSFQGQVTISVDKSISTAYLQWSSLKASDTAMYYCATTMTTGYFDYWGQGTLVTVSS
VL: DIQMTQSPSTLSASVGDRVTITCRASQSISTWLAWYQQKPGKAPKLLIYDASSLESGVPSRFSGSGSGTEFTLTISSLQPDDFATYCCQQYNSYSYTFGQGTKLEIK
notes: IgG; donor BRA13; source: recombinant monoclonal IgG, produced and purified as previously described
B9: V010 (antibody, V domains shown)
VH: QVQLQESGPGLVKPSETLSLTCTVSGGSISSYYWSWIRQPPGKGLEWIGYIYYNGSTNYNPSLKSRVTISLDTSKNQFSLKLSSVTAADTAVYYCASDYYDSSGYYYGFDYWGQGTLVTVSS
VL: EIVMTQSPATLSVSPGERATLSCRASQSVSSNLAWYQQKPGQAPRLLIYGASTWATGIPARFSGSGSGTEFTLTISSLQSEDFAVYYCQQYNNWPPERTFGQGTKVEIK
notes: as for B8
B10: V011 (antibody, V domains shown)
VH: QVQLVQSGAEVKKPGASVKVSCKASGYIFTSYDINWVRQATGQGLEWMGWMNPNSGNTGYAQKFQGRVTMTRNTSISTAYMELSSLRSEDTAVYYCARASSSLTYYFDYWGQGTLVTVSS
VL: SYELTQPPSVSVAPGKTARITCGENNIGSKSVHWYQQKPGQAPVLVVYDDSDRPSGIPERFSGSNSGNTATLTISRVEAGDEADYYCQVWDSSSDPVVFGGGTKLTVL
notes: as for B8
B11: V013 (antibody, V domains shown)
VH: QVQLVESGGGVVQPGRSLRLSCAGSGFIFSSFAMHWVRQAPGKGLEWVAVVSYDGDNKYYADSVKGRFTISRDNSKNTLYLQMDSLRPEDTAVYFCGRDEAALWIQRWYREIDFWGQGTLVTVSS
VL: QSVLTQPPSVSGTPGQRVTISCSGSSSNTGRNPVTWYQQFPGSAPKLLISRNNQRPSGVPDRFSGSKSGTSASLAISGLQSEDEADYYCAAWDDNLNGQVFGGGTKVTVL
notes: as for B8
B12: V014 (antibody, V domains shown)
VH: EVQLVESGGGLVQPGGSLRLSCAASGFTFSSYDMHWVRQATGKGLEWVSAIGTAGDTYYPGSVKGRFTISRENAKNSLYLQMNSLRAGDTAVYYCARGVITMVRGVIRDYYYYGMDVWGQGTTVTVSS
VL: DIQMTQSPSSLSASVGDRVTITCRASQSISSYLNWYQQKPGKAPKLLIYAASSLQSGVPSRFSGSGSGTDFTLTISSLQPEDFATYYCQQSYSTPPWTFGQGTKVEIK
notes: as for B8
B13: V015 (antibody, V domains shown)
VH: EVQLVESGGGLVQPGGSLRLSCAASGFTFNSYWMSWVRQAPGKGLEWVANIKQDGSEKYYVDSVKGRFTISRDNAKNSLYLQMNSLRAEDTAVYYCARLPTYYSGFDYWGQGTLVTVSS
VL: NFMLTQPHSVSESPGKTVTISCTGSSGSIASNYVQWYQQRPGSAPTTVIYEDNQRPSGVPDRFSGSIDSSSNSASLTISGLKTEDEADYYCQSYDSTNRGVVFGGGTKLTVL
notes: as for B8
B14: V016 (antibody, V domains shown)
VH: QVQLVESGGGVVQPGRSLRLSCAASGFTFSNYGMHWVRQAPGKGLEWVAVISYDGSNKYYADSVKGRFTISRDNSKNTLYLQMNSVRVEDTAVYYCAKGSFGYSYVHTYFDYWGQGTLVTVSS
VL: B6 VL with N45K, K50D, A53S, T72I, Y94P, P95M, I96Y, R103K
notes: as for B8
B15: V002 (antibody, V domains shown)
VH: EVQLVESGGGLVQPGRSLRLSCAASGFTFDEYAMHWVRQAPGKGLEWVSGSSWNSGTIGYADSVKGRFTISRDNAKNSLYLQMNSLRAEDTALYYCAKSQGDYGGNSGAGYFQHWGQGTLVTVSS
VL: B10 VL with E24G, V44M, D95E, P96V, V97Y, G101T, L105V
notes: as for B8
B16: V017 (antibody, V domains shown)
VH: EVQLVESGGGLVQPGGSLRLSCVASGFTFSTYSMNWVRQAPGKGLEWVSYISSSSSTIYYADSVKGRFTISRDNAKSSLYLQMNSLRAEDTAVYYCASGLCGGDCPLTCWGQGTLVTVSS
VL: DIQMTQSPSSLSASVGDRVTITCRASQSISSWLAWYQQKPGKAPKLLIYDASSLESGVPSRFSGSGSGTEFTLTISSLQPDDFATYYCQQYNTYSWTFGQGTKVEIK
notes: as for B8
B17: V019 (antibody, V domains shown)
VH: QVQLVQSGAEVKKPGSSVKVSCKASGGTFSTYTFSWVRQAPGQGLEWMGRIIPILGIANYAQKFQGRITITADKSTSTAYMELSSLRSEDTAVYYCAWGSYSYGYFVDIWGQGTMVTVSS
VL: DIVMTQTLLSLSVTPGQPASISCKSSQSLLHSDGKTYLYWYLQKPGQSPQLLIYEVSSRFSGVPDRFSGSGSGTDFTLKISRVEAEDVGVYYCMQGIQFHWTFGQGTKLEIK
notes: as for B8
B18: V020 (antibody, V domains shown)
VH: QVQLVESGGGVVQPGRSLRLSCAASGFTFSSYGMHWVRQAPGKGLEWVAVISYDGSNKYYADSVKGRFTISRDNSKNTLYLQMNSLRAEDTAVYYCAKGGWFGELLRYFDYWGQGTLVTVSS
VL: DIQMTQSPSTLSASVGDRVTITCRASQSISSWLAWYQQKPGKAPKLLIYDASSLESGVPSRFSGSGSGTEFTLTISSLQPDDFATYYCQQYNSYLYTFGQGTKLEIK
notes: as for B8
B19: V022 (antibody, V domains shown)
VH: EVQLVESGGGLVKPGGSLRLSCAASGFTFSSYSMNWVRQAPGKGLEWVSSISSTNNYIYNADSVKGRFTISRDNAKNSLYLQMNSLRAEDTAVYYCARDPAGRYSYGLYYFYYMDVWGKGTTVTVSS
VL: QSALTQPASVSGSPGQSITISCTGTSSDVGGYNYVSWYQQRPGKAPKLMIYDVSNRPSGVSDRFSGSKSGNTASLTISGLQAEDEADYYCTSYTSSSSLYVFGTGTKVTVL
notes: as for B8
B20: V025 (antibody, V domains shown)
VH: QVQLVQSGAEVKKPGASVKVSCKASGYTFTSYGISWVRQAPGQGLEWMGWISVYNGKTNYAQKLQGRVTMTTDTSTSTAYMELRSLISDDTAVYYCARADRYNWDYGSSWGQGTLVTVSS
VL: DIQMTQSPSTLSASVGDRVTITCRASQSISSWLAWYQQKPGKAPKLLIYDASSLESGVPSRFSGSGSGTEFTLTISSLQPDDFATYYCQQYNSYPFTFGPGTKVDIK
notes: as for B8
B21: V026 (antibody, V domains shown)
VH: B18 VH with A24V, D54E, F102Y, E104S, L105P, L106T, R107Y
VL: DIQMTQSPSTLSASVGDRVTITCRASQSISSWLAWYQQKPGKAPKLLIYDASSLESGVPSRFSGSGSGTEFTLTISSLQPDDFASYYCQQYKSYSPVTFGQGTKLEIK
notes: as for B8
B22: V003 (antibody, V domains shown)
VH: EVQLVQSGAEVKKPGESLKISCLGSGYSFTSYWIGWVRQMPGKGLEWMGIIFPADSDTRYSPSFQGQVIISADKSISTAYLQWSSLKASDTAMYYCARLREFGDYYYYGMDVWGQGTTVTVSS
VL: DIQLTQSPSSLSASVGDRVTITCRASQGISSYLAWYQQKPGKAPKLLIYAASTLQSGVPSRFSGSGSGTDFTLTISSLQPEDFATYYCQQLNSYPDFGQGTKLEIK
notes: as for B8
B23: V028 (antibody, V domains shown)
VH: QVQLVESGGGVVQPGRSLRLSCAASGFTFSSYGMHWVRQAPGKGLEWVAVVSFDGSDKYYADSVKGRFTISRDNSKNTLYLQMNSLRAEDTALYYCAKGGYSYAYPRYYFDYWGQGTLVTVSS
VL: DIQMTQSPSSLSASVGDRVTITCQASQDISNYLNWYQQKPGKAPKLLIYDASNLETGVPSRFSGSGSGTDFTFTISSLQPEDIATYYCQQHDNLPITFGQGTRLEIK
notes: IgG; donor BRA14; source: recombinant monoclonal IgG, produced and purified as previously described
B24: V031 (antibody, V domains shown)
VH: B23 VH with V51I, F53Y, D57N, T69A, I70F, L93V
VL: B23 VL
notes: as for B23
B25: V047 (antibody, V domains shown)
VH: EVQLVESGGGLVQPGGSLRLSCAASGFTFSSYWMSWVRQAPGKGLEWVANIKQDGSEKYYVDSVKGRFTISRDNAKNSLYLQVNSLRAEDTAVYYCARGQSRQYSSSWYGPAPVVDYFDYWGQGTLVTVSS
VL: QSVLTQPPSASGTPGQRVTISCSGSSSNFGSNYVYWYQQLPGTAPKLLIYRNKQRPSGVPDRFSGSKSGTSASLAISGLRSEDEADYYCAAWDDSLSVLWVFGGGTKLTVL
notes: IgG; donor BRA15

Target: SARS-CoV-2 Wuhan-Hu-1 RBD (SARS-CoV-2 Wuhan-Hu-1, UniProt P0DTC2)
Assay: BLI
Settings: both partners purified

Row | Binder | Kd [µM] | binding result
1 | B1 | 0.0143 | –
2 | B2 | 0.0169 | –
3 | B3 | 0.0206 | –
4 | B4 | 0.0133 | –
5 | B5 | 0.00286 | –
6 | B6 | 0.00416 | –
7 | B7 | 0.00276 | –
8 | B8 | 0.00322 | –
9 | B9 | 0.00208 | –
10 | B10 | 0.00746 | –
11 | B11 | 0.128 | –
12 | B12 | 0.0151 | –
13 | B13 | 0.0158 | –
14 | B14 | 0.00584 | –
15 | B15 | 1.17 | –
16 | B16 | 0.0184 | –
17 | B17 | 0.00384 | –
18 | B18 | 0.0773 | –
19 | B19 | 0.013 | –
20 | B20 | 0.00193 | –
21 | B21 | 0.0107 | –
22 | B22 | 2.98 | –
23 | B23 | 0.0198 | –
24 | B24 | 0.00939 | –
25 | B25 | – | no binding (tested: 100 µg/ml RBD)
